Values of other authors, collected in publication PMC7587574.
pKd: −log10 of the molar value. Read-outs that look alike come from different tables or passages of the source. Values belong to the substance of their own block, whether it stands above or below them.

Key:
[1] = target: PACAP receptor (PAC1R) (Homo sapiens) (UniProt P41586)
[2] = target: PACAP receptor (PAC1R) (Homo sapiens) (UniProt P41586); remark: listed apart in the source
[3] = target: κ-opioid receptor (Homo sapiens) (UniProt P41145)
κ-opioid receptor (Homo sapiens), sequence (P41145 whole entry): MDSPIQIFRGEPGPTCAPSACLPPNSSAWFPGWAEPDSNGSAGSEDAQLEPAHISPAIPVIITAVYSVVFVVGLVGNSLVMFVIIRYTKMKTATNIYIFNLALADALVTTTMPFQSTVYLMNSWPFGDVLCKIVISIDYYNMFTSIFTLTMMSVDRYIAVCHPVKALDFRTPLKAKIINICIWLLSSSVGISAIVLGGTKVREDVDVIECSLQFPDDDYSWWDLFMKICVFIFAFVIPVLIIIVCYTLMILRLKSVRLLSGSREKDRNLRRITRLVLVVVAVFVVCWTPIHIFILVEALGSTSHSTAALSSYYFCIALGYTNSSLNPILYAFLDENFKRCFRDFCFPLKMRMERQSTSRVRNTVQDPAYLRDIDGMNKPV

PACAP receptor (PAC1R) (Homo sapiens), sequence (P41586 21-468): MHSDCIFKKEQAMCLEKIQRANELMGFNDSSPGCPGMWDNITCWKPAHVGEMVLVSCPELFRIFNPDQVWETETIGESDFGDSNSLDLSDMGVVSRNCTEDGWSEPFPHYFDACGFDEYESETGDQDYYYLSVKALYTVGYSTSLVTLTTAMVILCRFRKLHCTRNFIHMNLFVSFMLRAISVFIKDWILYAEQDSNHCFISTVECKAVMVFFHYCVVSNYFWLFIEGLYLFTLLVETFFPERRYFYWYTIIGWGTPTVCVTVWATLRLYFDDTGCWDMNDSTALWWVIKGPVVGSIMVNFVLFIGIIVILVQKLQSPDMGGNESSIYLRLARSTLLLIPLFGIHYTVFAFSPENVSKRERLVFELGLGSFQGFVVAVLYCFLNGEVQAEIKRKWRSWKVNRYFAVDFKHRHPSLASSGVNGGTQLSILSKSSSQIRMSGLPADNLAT
PACAP, sequence (P18509 82-129): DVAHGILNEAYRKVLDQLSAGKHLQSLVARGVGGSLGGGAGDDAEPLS
PACAP (truncated), sequence (P18509 137-169): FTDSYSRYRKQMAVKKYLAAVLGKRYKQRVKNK

pKd [1]: 8.52
Substance: PACAP (from UniProt P18509)

pKd [2]: 4.74
Substance: PACAP (truncated) (from UniProt P18509)

Substance: dynorphin 13-mer fragment (from UniProt P01213)
pKd [3]: 6.70
